Test results published in PMC9969015.

Molecular target: S-RBD protein with C-terminal human Fc-tag (receptor-binding domain of SARS-CoV-2 S protein)
Test: flow cytometry on cells
Settings: 100 μg/ml S-RBD, 1 mM Mn2+, β1-KO 293 T cells, read off a plot

Substance “wild-type α4β1 integrin expressed in β1-KO 293 T cells (from UniProt P13612;P05556) β1:D130A” has a response (parent: est. 1.5) of 0.95 relative MFI.
In the case of “wild-type α4β7 integrin expressed in β1-KO 293 T cells (from UniProt P13612;P26010) β7:D119A”, the response (parent: est. 2.0) is reported as 1.2 relative MFI.
“wild-type α5β1 integrin expressed in β1-KO 293 T cells (from UniProt P08648;P05556) β1:D130A” was tested, and the response (parent: est. 1.2) was 0.93 relative MFI.
Work on “wild-type αLβ2 integrin expressed in β1-KO 293 T cells (from UniProt P20701;P05107) αL:D137A” yielded a response (parent: est. 1.3) of 0.97 relative MFI.
